The source of these data is US11149077B2, “Targeted therapeutics based on engineered proteins for tyrosine kinases receptors, including IGF-IR” (BRISTOL-MYERS SQUIBB COMPANY, priority 2006, dated 2021).

One data set addresses T1, human IGF-IR (Homo sapiens, UniProt P08069).
T1 construct: The extracellular domain of human IGF-IR (aa 1-932) was cloned into a mammalian expression vector; made in house
The data set is described as follows: Surface plasmon resonance (BIAcore) binding kinetics and affinity on immobilized IGF-IR. How it is done: The binding kinetics of fibronectin-based scaffold proteins binding proteins to the target was measured using BIAcore 2000 or 3000 biosensors (Pharmacia Biosensor). A capture assay was developed utilizing an IGF-IR-Fc fusion. A similar reagent had been described by Forbes et al. (Forbes et al. 2002, European J. Biochemistry, 269, 961-968). The extracellular domain of human IGF-IR (aa 1-932) was cloned into a mammalian expression vector containing the hinge and constant regions of human IgG1. Transient transfection of the plasmid produced a fusion protein, IGF-IR-Fc which was subsequently purified by Protein A chromatography and captured on Protein A immobilized on Biasensor CM5 chips by amine coupling. The kinetic analysis involved the capture of IGF-IR-Fc on Protein A followed by injection of the fibronectin-based scaffold protein in solution and regeneration of the Protein A surface by glycine pH 2.0. Sensorgrams were obtained at each concentration and were evaluated using a program Biaevaluation, BIA Evaluation 2.0 (BIAcore), to determine the rate constants ka (kon) and kd (koff) The dissociation constant, KD was calculated from the ratio of rate constants koff/kon. Typically, a concentration series (2 uM to 0 uM) of purified fibronectin-based scaffold protein was evaluated for binding to protein A captured human IGF-IR-Fc fusion protein.

The subject of a further data set is RH41 sarcoma xenografts. The data set is described as follows: In vivo antitumor activity in RH41 sarcoma xenografts. As to conditions: for % TGI: calculated on day 39; for LCK: gross log cell kill; for AVE weight change: Day 20 to Day 42. How it is done: *Tumor growth inhibition and probability values calculated on day 39. ^aVehicle was 80% PEG400, 20% dH2O. ^bVehicle was PBS. ^cAverage weight change for each group is the mean difference between weight at the start of treatment (Day 20) and after the end of treatment (Day 42). TVDT was calculated for a size of 500 mg Abbreviations used are as follows: po, oral route; ip, intraperitoneal route; LCK, gross log cell kill calculated as LCK=T−C/(3.32×TVDT) where T-C is the difference in time in days for the treated tumors (T) to reach a predetermined size (tumor target size) relative to the vehicle control group (C) divided by the tumor volume doubling time (TVDT) multiplied by 3.32.
Tumors were propagated in nude mice. Tumor passages occurred every four weeks for human RH41 xenografts. With regard to efficacy testing human tumor xenografts were implanted in nude mice. All tumor passages were subcutaneous (sc).
Antitumor activity was evaluated in terms of: a) cures, and for the murine tumor models, increases in lifespan reflected by the relative median survival time (MST) of treated (T) versus control (C) groups (i.e. % T/C values); and b) primary tumor growth inhibition determined by calculating the relative median times for T and C mice to grow tumors of a predetermined “target” size (1 gm for all sc tumor models described) and expressed as T-C values, in days. The definition of a cured mouse was one whose tumor was undetectable, or <35 mg, when assessed more than 10 tumor volume doubling times (TVDTs) post-treatment. The activity criterion for tumor inhibition/reduction was a statistically significant delay in primary tumor growth consistent with 1 gross log cell kill (LCK). The following formula was employed to calculate LCK: LCK=T−C/(3.32×TVDT)
Where, TVDT=median time (days) for control tumors to reach target size—median time (days) for control tumors to reach half the target size. […] The maximum tolerated dose (MTD) is defined as the dose level immediately […] which excessive toxicity (i.e. more than one death) occurred. […] Statistical evaluations of data were performed using Gehan's generalized Wilcoxon test (Gehan, Biometrika 52:203-223, 1965). Western Blot Analysis of 385A08-Fc

Data set [1] in a line: Size-exclusion chromatography (solution properties, monomericity). Type of data set: physicochemical. How it is done: Size-exclusion chromatography (SEC) was performed using a TSKgel Super SW2000 column (TOSOH Biosciences, LLC), 4.6 mm×30 cm, on an Agilent 1100 HPLC system with UV detection at A214 nm and A280 nm and with fluorescence detection (excitation=280 nm, emission=350 nm). A buffer of 100 mM sodium sulfate, 100 mM sodium phosphate, 150 mM sodium chloride, pH 6.8 at a flow rate of 100 μL/min was employed. Samples (0.1 to 1 μg each) at a concentration of approximately 100 μg/mL were injected separately. Gel filtration standards (Bio-Rad Laboratories, Hercules, Calif.) were used for molecular weight calibration.
In general terms: In gel filtration, larger molecules generally elute earlier.

Another data set addresses T2, human insulin receptor (Homo sapiens, UniProt P06213).
T2 construct: purchased R&D Systems (Minneapolis, Minn.)
Put plainly: BIAcore binding to immobilized human insulin receptor. As to conditions: percentage of signal for insulin binding at similar concentration. As for the experimental part:
One liter E. coli growths of selected optimized clones were prepared and the proteins were purified.
In brief, 60 ug/mL of IR diluted in acetate 4.5 was coupled/immobilized to a level of 8300 RU and 11.9 ug/mL of VEGF-R2-Fc diluted in acetate 5.0 was immobilized to a level of 9700 RU on flow cells 2 and 3. A blank reference surface was prepared on FC1. […] Fibronectin-based scaffold proteins were diluted to 10 uM in HBS-EP (10 mM Hepes 150 mM NaCl 3 mM EDTA 0.05% Surfactant P20) and injected at 20 uL/min for 3 minutes over the flow cells at 25 C and dissociation was observed over 10 mins.

Data set [2] in a line: Differential scanning calorimetry (thermal stability, Tm). Type of data set: physicochemical. As to conditions: DSC. How it is done:
Differential Scanning calorimetry (DSC) analysis of midscaled clones was performed to determine thermal stability. A 1 mg/ml solution of appropriate clone was scanned in a N-DSC II calorimeter (calorimetry Sciences Corp) by ramping the temperature from 5° C. to 95° C. at a rate of 1 degree per minute under 3 atm pressure. The data was analyzed vs. a control run of the appropriate buffer using a best fit using Orgin Software (OrginLab Corp).
A general note: In DSC, transitions show as peaks or steps in heat flow.

The mark [3] stands for this setting: Table 4, optimized 218C04 clones.
Where [4] appears, read: Table 7, FG loop optimized 338A06 clones.

B1: 385A08-PEG40: 385A08 (SEQ ID NO: 203) coupled via Cys97 to a mono-functional branched 40 kDa PEG (conjugate)
chain: GVSDVPRDLEVVAATPTSLLISWSARLKVARYYRITYGETGGNSPVQEFTVPKNVYTATISGLKPGVDYTITVYAVTRFRDYQPISINYRTEIDKPCQ
modifications: branched 40 kDa PEG via Cys97
In the case of B1, in the data set with human IGF-IR, the “off-rate (kd) relative to unmodified 385A08” value is reported as “slightly increased” and the “slower on-rate (ka) relative to unmodified 385A08” value was “approximately 10 fold”. Further, in the data set with human IGF-IR (Table 10, PEGylated variants), the ka is 0.6 1/M*s × 10^+6 and the kd was 2.1 1/s × 10^−4. Further, in the data set with RH41 sarcoma xenografts (40 mg/kg, TIWx3, 20 ip), the “Outcome by (% TGI)” value was “A (A % TGI value of >50% was considered active)”, the “% TGI” value was 56% and the LCK was found to be 0.4.

B2: 218C04 (protein)
chain: VSDVPRDLEVVAATPTSLLISWSPYLRVARYYRITYGETGGNSPVQEFTVPSSARTATISGLKPGVDYTITVYAVTPSNIIGRHYGPISINYRT
Broadly, the Kd is a measure of binding affinity in units of concentration. Read a high Kd as lower affinity. B2: the “solution behaviour by SEC (monomer / aggregation)” value in data set [1] was “virtually all monomeric”. The same molecule yielded a Kd in the data set with human IGF-IR (clone in solution phase, immobilized IGF-IR) of 1.8 nM.

B3: 353H09 (protein)
chain: VSDVPRDLEVVAATPTSLLISWSDKLKVQRYYRITYGETGGNSPVQEFTVPKHDRTATISGLKPGVDYTITVYAVTKMRDYRPISINYRTHHHHHH
One may read the Tm as the temperature at the midpoint of the melting transition. Take B3: the “% IR Binding at 10 μM” value in the data set with human insulin receptor (Table 5) came out at 0%. Further, in data set [2] (Table 3), the midpoint of thermal melting (Tm) worked out at 55 °C. Besides, in the data set with human IGF-IR (setting [3]), the ka is 3.8 1/M*s × 10^+6 and the kd is listed as 2.2 1/s × 10^−4.

B4: 386A03 (protein)
chain: VSDVPRDLEVVAATPTSLLISWSARLKVARYYRITYGETGGNSPVQEFTVPKNVYTATISGLKPGVDYTITVYAVTNLRDYGPISINYRTHHHHHH
For B4, the “% IR Binding at 10 μM” value with human insulin receptor (Table 8) is on record as 3%. Also, the Tm in data set [2] (Table 9) is 62 °C. In the data set with human IGF-IR (setting [4]), the ka is 5.2 1/M*s × 10^+6 and the kd was 4.6 1/s × 10^−4.

B5: 386F10 (protein)
chain: VSDVPRDLEVVAATPTSLLISWSARLKVARYYRITYGETGGNSPVQEFTVPKNVYTATISGLKPGVDYTITVYAVTLLRDYGPISINYRTHHHHHH
For B5, in the data set with human insulin receptor (Table 8), the “% IR Binding at 10 μM” value is 3%. In addition, the Tm in data set [2] (Table 9) amounted to 58 °C. In the data set with human IGF-IR (setting [4]), the ka is on record as 1.9 1/M*s × 10^+6 and the kd is 2.3 1/s × 10^−4.

B6: 385A08 (protein)
chain: VSDVPRDLEVVAATPTSLLISWSARLKVARYYRITYGETGGNSPVQEFTVPKNVYTATISGLKPGVDYTITVYAVTRFRDYQPISINYRTHHHHHH
In the case of B6, in the data set with human insulin receptor (Table 8), the “% IR Binding at 10 μM” value was found to be 0%. Further, the Tm in data set [2] (Table 9) is 59 °C. Moreover, in the data set with human IGF-IR (setting [4]), the ka is recorded as 5.7 1/M*s × 10^+6 and the kd was 1.9 1/s × 10^−4. Further, in the data set with human IGF-IR (Table 10, PEGylated variants), the ka is 6.9 1/M*s × 10^+6 and the kd is reported as 1.6 1/s × 10^−4. In addition, in the data set on RH41 sarcoma xenografts (20 mg/kg, 2qdx20, 28 ip), the AVE weight change came out at 0.6 g, the “% TGI” value was 33% and the LCK is 0.2. For the same molecule, in the data set on RH41 sarcoma xenografts (40 mg/kg, 2qdx20, 28 ip), the AVE weight change was determined as 1.0 g, the “% TGI” value is 19% and the LCK stood at 0.2.

B7: 339A01 (protein)
chain: VSDVPRDLEVVAATPTSLLISWSTALKVQRYYRITYGETGGNSPVQEFTVPKHSHTATISGLKPGVDYTITVYAVTKMRDYRPISINYRTHHHHHH
B7: in the data set with human IGF-IR (setting [3]), the ka is listed as 1.2 1/M*s × 10^+6 and the kd is given as 6.7 1/s × 10^−4.

B8: 387B01 (protein)
chain: VSDVPRDLEVVAATPTSLLISWSARLKVARYYRITYGETGGNSPVQEFTVPKNVYTATISGLKPGVDYTITVYAVTSLRDYGPISINYRTHHHHHH
For the molecule B8, the “% IR Binding at 10 μM” value with human insulin receptor (Table 8) is on record as 0%. For the same molecule, the Tm in data set [2] (Table 9) was determined as 63 °C. In addition, in the data set with human IGF-IR (setting [4]), the ka is on record as 6.5 1/M*s × 10^+6 and the kd was 4.4 1/s × 10^−4.

B9: 353F10 (protein)
chain: VSDVPRDLEVVAATPTSLLISWPTHYKVARYYRITYGETGGNSPVQEFTVPKHTYTATISGLKPGVDYTITVYAVTTTKGLRHYGPISINYRTHHHHHH
In the case of B9, the Tm in data set [2] (Table 3) is 59 °C. For the same molecule, in the data set with human IGF-IR (setting [3]), the ka was 3.7 1/M*s × 10^+6 and the kd was 2.1 1/s × 10^−4.

B10: 354A10 (protein)
chain: VSDVPRDLEVVAATPTSLLISWSNRLVVKRYYRITYGETGGNSPVQEFTVPHQMKTATISGLKPGVDYTITVYAVTPGGYSGRNYGPISINYRTHHHHHH
With B10, in data set [2] (Table 3), the Tm is 46 °C. In addition, in the data set with human IGF-IR (setting [3]), the ka is given as 1.1 1/M*s × 10^+6 and the kd is on record as 1.8 1/s × 10^−4.

B11: 338A05 (protein)
chain: VSDVPRDLEVVAATPTSLLISWSDSLKVSRYYRITYGETGGNSPVQEFTVPKQYHTATISGLKPGVDYTITVYAVTPSNIIGRHYGPISINYRTHHHHHH
On to B11, for which the Tm in data set [2] (Table 3) amounted to 68 °C. Further, in the data set with human IGF-IR (setting [3]), the ka was 1.3 1/M*s × 10^+6 and the kd is listed as 3.3 1/s × 10^−4.
